Columns and labels:
NK-92 cell surface = test: Flow cytometry of StcE surface level on NK-92 cells (anti His-tag); type: cell-based; settings: after washing with buffer; no additional molecular tether
Description: Cells were plated, grown for 24 hours, and then induced with various concentrations of doxycycline for 24 hours. Adherent cells were detached by incubating with Accutase (Innovative Cell Technologies) at 37° C. for 10 minutes. GFP nanobody conjugated Alexa Fluor 647, Neutravidin conjugated DyLight 650, CF640R PNA, Alexa Fluor 647 HPA, and biotin MAL-II were diluted 1:200 in 0.5% BSA PBS and incubated with cells at 4° C. for 30 minutes for each stain. For analysis of Muc1 cell surface expression level, anti-Human Muc Clone HMPV was diluted 1:200 in 0.5% BSA PBS and incubated with cells at 4° C. (for 1 hour. Secondary labelling was with Alexa Fluor 647 conjugated goat anti-mouse, diluted 1:1000 in 0.5% BSA PBS and incubated with cells at 4° C. for 1 hour. For analysis of StcE mucinase binding to NK-92 cells, NK cells were incubated with StcE at 37° C. for 1 hour. Cells were thoroughly washed to remove StcE and coculture with target cells. Anti-6× His-tag antibody was diluted 1:100 in 0.5% BSA PBS and incubated with cells at 4° C. for 1 hour. Secondary labelling was with Alexa Fluor 647 goat anti-rabbit IgG, diluted 1:500 in 0.5% BSA PBS or FluoTag-X2 anti-AFLA conjugated with Alexa Fluor 647 was diluted 1:200 in 0.5% BSA PBS and incubated with cells at 4° C. for 1 hour. […]

[1] = test system: Muc1-GFP expressing 1E7 cells; test: Removal of cell-surface mucin from 1E7 cells (confocal imaging, GFP nanobody); type: cell-based; settings: 100 nM enzyme
Description: FIG. 11. StcE mucinase effectively remove cell-surface mucin on 1E7 clone and NK cell. (A) Representative confocal images of Muc1-GFP expressing 1E7 cells with and without treatment with 100 nM StcE, StcE ΔX409, or StcE-EE Zip; Alexa Fluor 647 conjugated to GFP nanobody is used to probe cell-surface Muc1-GFP constructs. (Scale bar, 10 μm). (B) Quantification of mean fluorescence intensity of Muc1-GFP and cell-surface Muc1-GFP probed with GFP nanobody in 1E7 cells treated with the indicated concentration of StcE mucinase; results are shown for induction of Muc1-GFP at 100 ng/ml and 1000 ng/ml doxycycline. (C) Cytotoxicity of NK-92 cells against 1E7 cells treated with control buffer, 100 nM StcE mucinase, or 5,000 U/mL PNGase F for 1 hour; Muc1-GFP induction is at the indicated doxycycline concentration (1,100, and 1,000 ng/ml); NK cell to target cell ratio is 5:1. (D) Flow cytometry analysis of mucin levels on NK-92 cells following incubation with control buffer or 100 nM recombinant StcE or StcE ΔX409; StcE surface level after incubation probed with anti His-tag antibody and cell-surface mucin level probed with catalytically dead StcE E447D conjugated to Cy5. Statistical significance is given by ns—not significant, *P≤0.05, **P≤0.01, ***P≤0.001, ****P≤0.0001. Results are a representative dataset from 3 independent replicates. […]

B1: StcE-ΔX409: StcE with a deleted C-terminal X409 lectin domain; NK cells treated with it: StcE-ΔX409 NK (protein)
chain: ADNNSAIYFNTSQPINDLQGSLAAEVKFAQSQILPAHPKEGDSQPHLTSLRKSLLLVRPVKADDKTPVQVEARDDNNKILGTLTLYPPSSLPDTIYHLDGVPEGGIDFTPHNGTKKIINTVAEVNKLSDASGSSIHSHLTNNALVEIHTANGRWVRDIYLPQGPDLEGKMVRFVSSAGYSSTVFYGDRKVTLSVGNTLLFKYVNGQWFRSGELENNRITYAQHIWSAELPAHWIVPGLNLVIKQGNLSGRLNDIKIGAPGELLLHTIDIGMLTTPRDRFDFAKDKEAHREYFQTIPVSRMIVNNYAPLHLKEVMLPTGELLTDMDPGNGGWHSGTMRQRIGKELVSHGIDNANYGLNSTAGLGENSHPYVVAQLAAHNSRGNYANGIQVHGGSGGGGIVTLDSTLGNEFSHEVGHNYGLGHYVDGFKGSVHRSAENNNSTWGWDGDKKRFIPNFYPSQTNEKSCLNNQCQEPFDGHKFGFDAMAGGSPFSAANRFTMYTPNSSAIIQRFFENKAVFDSRSSTGFSKWNADTQEMEPYEHTIDRAEQITASVNELSESKMAELMAEYAVVKVHMWNGNWTRNIYIPTASADNRGSILTINHEAGYNSYLFINGDEKVVSQGYKKSFVSDGQFWKERDVVDTREARKPEQFGVPVTTLVGYYDPEGTLSSYIYPAMYGAYGFTYSDDSQNLSDNDCQLQVDTKEGQLRFRLANHRANNTVMNKFHINVPTESQPTQATLVCNNKILDTKSLTPAPEGLTYTVN
In the case of B1, the “binding and retention on the NK-92 cell surface” value (NK-92 cell surface) is reported as “not retained” and the “removal / cleavage of cell-surface mucin” value [1] is reported as “could actively digest Muc”.
